The results in this text go back to patent publication US20160263155A1, “T CELL RECEPTORS DIRECTED AGAINST THE PREFERENTIALLY EXPRESSED ANTIGEN OF MELANOMA AND USES THEREOF” (LEIDEN UNIVERSITY MEDICAL CENTER, priority 2015, published 2016).

For the assay, the system named is chimeric Caspase-9 polypeptide. Nature of the assay: Caspase mutant classes and basal activity (Table 3). The class given is cell-based, human. The conditions noted are these: class heading of Table 3; for IC50: ligand IC50.
chimeric Caspase-9 polypeptide, sequence (as listed by the source, change not shown): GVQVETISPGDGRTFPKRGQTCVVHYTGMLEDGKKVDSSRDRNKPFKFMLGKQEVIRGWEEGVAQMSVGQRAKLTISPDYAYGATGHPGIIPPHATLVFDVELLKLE

B1: ^402GCFNF^406ISAQT: Caspase-9 homodimerization domain mutant (SEQ ID NOS 95 and 96) (Casp-10) (protein, UniProt P55211 1-416, looked up, variant G402I C403S F404A N405Q F406T)
chain: MDEADRRLLRRCRLRLVEELQVDQLWDALLSRELFRPHMIEDIQRAGSGSRRDQARQLIIDLETRGSQALPLFISCLEDTGQDMLASFLRTNRQAAKLSKPTLENLTPVVLRPEIRKPEVLRPETPRPVDIGSGGFGDVGALESLRGNADLAYILSMEPCGHCLIINNVNFCRESGLRTRTGSNIDCEKLRRRFSSLHFMVEVKGDLTAKKMVLALLELAQQDHGALDCCVVVILSHGCQASHLQFPGAVYGTDGCPVSVEKIVNIFNGTSCPSLGGKPKLFFIQACGGEQKDHGFEVASTSPEDESPGSNPEPDATPFQEGLRTFDQLDAISSLPTPSDIFVSYSTFPGFVSWRDPKSGSWYVETLDDIFEQWAHSEDLQSLLLRVANAVSVKGIYKQMPISAQTLRKKLFFKTS
Turning to B1, the “Basal Activity” value was “Decreased” and the IC50 result is reported as “higher IC50”.

B2: N405Q (protein)
chain: GFGDVGALESLRGNADLAYILSMEPCGHCLIINNVNFCRESGLRTRTGSNIDCEKLRRRFSSLHFMVEVKGDLTAKKMVLALLELAQQDHGALDCCVVVILSHGCQASHLQFPGAVYGTDGCPVSVEKIVNIFNGTSCPSLGGKPKLFFIQACGGEQKDHGFEVASTSPEDESPGSNPEPDATPFQEGLRTFDQLDAISSLPTPSDIFVSYSTFPGFVSWRDPKSGSWYVETLDDIFEQWAHSEDLQSLLLRVANAVSVKGIYKQMPGCFQFLRKKLFFKTS
B2: the “Basal Activity” value was “Decreased” and the IC50 entry was “higher IC50”.

B3: D330V (protein)
chain: GFGDVGALESLRGNADLAYILSMEPCGHCLIINNVNFCRESGLRTRTGSNIDCEKLRRRFSSLHFMVEVKGDLTAKKMVLALLELAQQDHGALDCCVVVILSHGCQASHLQFPGAVYGTDGCPVSVEKIVNIFNGTSCPSLGGKPKLFFIQACGGEQKDHGFEVASTSPEDESPGSNPEPDATPFQEGLRTFDQLVAISSLPTPSDIFVSYSTFPGFVSWRDPKSGSWYVETLDDIFEQWAHSEDLQSLLLRVANAVSVKGIYKQMPGCFNFLRKKLFFKTS
In the case of B3, the “Basal Activity” value is “Decreased” and the IC50 entry is “higher IC50”.

B4: S195A (protein)
chain: GFGDVGALESLRGNADLAYILSMEPCGHCLIINNVNFCRESGLRTRTGSNIDCEKLRRRFASLHFMVEVKGDLTAKKMVLALLELAQQDHGALDCCVVVILSHGCQASHLQFPGAVYGTDGCPVSVEKIVNIFNGTSCPSLGGKPKLFFIQACGGEQKDHGFEVASTSPEDESPGSNPEPDATPFQEGLRTFDQLDAISSLPTPSDIFVSYSTFPGFVSWRDPKSGSWYVETLDDIFEQWAHSEDLQSLLLRVANAVSVKGIYKQMPGCFNFLRKKLFFKTS
Consider B4, for which the “Basal Activity” value is listed as “Decreased” and the IC50 result was “higher IC50”.

B5: D330N (protein)
chain: GFGDVGALESLRGNADLAYILSMEPCGHCLIINNVNFCRESGLRTRTGSNIDCEKLRRRFSSLHFMVEVKGDLTAKKMVLALLELAQQDHGALDCCVVVILSHGCQASHLQFPGAVYGTDGCPVSVEKIVNIFNGTSCPSLGGKPKLFFIQACGGEQKDHGFEVASTSPEDESPGSNPEPDATPFQEGLRTFDQLNAISSLPTPSDIFVSYSTFPGFVSWRDPKSGSWYVETLDDIFEQWAHSEDLQSLLLRVANAVSVKGIYKQMPGCFNFLRKKLFFKTS
For the molecule B5, the “Basal Activity” value was “Decreased” and the IC50 entry is “higher IC50”.

B6: D330A-S144D (protein)
chain: GFGDVGALEDLRGNADLAYILSMEPCGHCLIINNVNFCRESGLRTRTGSNIDCEKLRRRFSSLHFMVEVKGDLTAKKMVLALLELAQQDHGALDCCVVVILSHGCQASHLQFPGAVYGTDGCPVSVEKIVNIFNGTSCPSLGGKPKLFFIQACGGEQKDHGFEVASTSPEDESPGSNPEPDATPFQEGLRTFDQLAAISSLPTPSDIFVSYSTFPGFVSWRDPKSGSWYVETLDDIFEQWAHSEDLQSLLLRVANAVSVKGIYKQMPGCFNFLRKKLFFKTS
In the case of B6, the “Basal Activity” value is “Decreased” and the IC50 result is on record as “higher IC50”.

B7: D330A-N405Q (protein)
chain: GFGDVGALESLRGNADLAYILSMEPCGHCLIINNVNFCRESGLRTRTGSNIDCEKLRRRFSSLHFMVEVKGDLTAKKMVLALLELAQQDHGALDCCVVVILSHGCQASHLQFPGAVYGTDGCPVSVEKIVNIFNGTSCPSLGGKPKLFFIQACGGEQKDHGFEVASTSPEDESPGSNPEPDATPFQEGLRTFDQLAAISSLPTPSDIFVSYSTFPGFVSWRDPKSGSWYVETLDDIFEQWAHSEDLQSLLLRVANAVSVKGIYKQMPGCFQFLRKKLFFKTS
Regarding B7, the “Basal Activity” value is “Decreased” and the IC50 entry is given as “higher IC50”.

B8: D330A-S196A (protein)
chain: GFGDVGALESLRGNADLAYILSMEPCGHCLIINNVNFCRESGLRTRTGSNIDCEKLRRRFSALHFMVEVKGDLTAKKMVLALLELAQQDHGALDCCVVVILSHGCQASHLQFPGAVYGTDGCPVSVEKIVNIFNGTSCPSLGGKPKLFFIQACGGEQKDHGFEVASTSPEDESPGSNPEPDATPFQEGLRTFDQLAAISSLPTPSDIFVSYSTFPGFVSWRDPKSGSWYVETLDDIFEQWAHSEDLQSLLLRVANAVSVKGIYKQMPGCFNFLRKKLFFKTS
For the molecule B8, the “Basal Activity” value is given as “Decreased” and the IC50 entry is reported as “higher IC50”.

B9: D330A-S144A (protein)
chain: GFGDVGALEALRGNADLAYILSMEPCGHCLIINNVNFCRESGLRTRTGSNIDCEKLRRRFSSLHFMVEVKGDLTAKKMVLALLELAQQDHGALDCCVVVILSHGCQASHLQFPGAVYGTDGCPVSVEKIVNIFNGTSCPSLGGKPKLFFIQACGGEQKDHGFEVASTSPEDESPGSNPEPDATPFQEGLRTFDQLAAISSLPTPSDIFVSYSTFPGFVSWRDPKSGSWYVETLDDIFEQWAHSEDLQSLLLRVANAVSVKGIYKQMPGCFNFLRKKLFFKTS
For the molecule B9, the “Basal Activity” value is recorded as “Decreased” and the IC50 entry is “higher IC50”.

B10: D330G (protein)
chain: GFGDVGALESLRGNADLAYILSMEPCGHCLIINNVNFCRESGLRTRTGSNIDCEKLRRRFSSLHFMVEVKGDLTAKKMVLALLELAQQDHGALDCCVVVILSHGCQASHLQFPGAVYGTDGCPVSVEKIVNIFNGTSCPSLGGKPKLFFIQACGGEQKDHGFEVASTSPEDESPGSNPEPDATPFQEGLRTFDQLGAISSLPTPSDIFVSYSTFPGFVSWRDPKSGSWYVETLDDIFEQWAHSEDLQSLLLRVANAVSVKGIYKQMPGCFNFLRKKLFFKTS
B10: the “Basal Activity” value is “Decreased” and the IC50 entry is on record as “higher IC50”.

B11: S196A (protein)
chain: GFGDVGALESLRGNADLAYILSMEPCGHCLIINNVNFCRESGLRTRTGSNIDCEKLRRRFSALHFMVEVKGDLTAKKMVLALLELAQQDHGALDCCVVVILSHGCQASHLQFPGAVYGTDGCPVSVEKIVNIFNGTSCPSLGGKPKLFFIQACGGEQKDHGFEVASTSPEDESPGSNPEPDATPFQEGLRTFDQLDAISSLPTPSDIFVSYSTFPGFVSWRDPKSGSWYVETLDDIFEQWAHSEDLQSLLLRVANAVSVKGIYKQMPGCFNFLRKKLFFKTS
B11: the “Basal Activity” value is listed as “Decreased” and the IC50 entry is recorded as “higher IC50”.

B12: L329E (protein)
chain: GFGDVGALESLRGNADLAYILSMEPCGHCLIINNVNFCRESGLRTRTGSNIDCEKLRRRFSSLHFMVEVKGDLTAKKMVLALLELAQQDHGALDCCVVVILSHGCQASHLQFPGAVYGTDGCPVSVEKIVNIFNGTSCPSLGGKPKLFFIQACGGEQKDHGFEVASTSPEDESPGSNPEPDATPFQEGLRTFDQEDAISSLPTPSDIFVSYSTFPGFVSWRDPKSGSWYVETLDDIFEQWAHSEDLQSLLLRVANAVSVKGIYKQMPGCFNFLRKKLFFKTS
For the molecule B12, the “Basal Activity” value is “Decreased” and the IC50 result is given as “higher IC50”.

B13: T317A (protein)
chain: GFGDVGALESLRGNADLAYILSMEPCGHCLIINNVNFCRESGLRTRTGSNIDCEKLRRRFSSLHFMVEVKGDLTAKKMVLALLELAQQDHGALDCCVVVILSHGCQASHLQFPGAVYGTDGCPVSVEKIVNIFNGTSCPSLGGKPKLFFIQACGGEQKDHGFEVASTSPEDESPGSNPEPDAAPFQEGLRTFDQLDAISSLPTPSDIFVSYSTFPGFVSWRDPKSGSWYVETLDDIFEQWAHSEDLQSLLLRVANAVSVKGIYKQMPGCFNFLRKKLFFKTS
B13: the “Basal Activity” value was “Decreased” and the IC50 result is reported as “higher IC50”.

B14: D330S (protein)
chain: GFGDVGALESLRGNADLAYILSMEPCGHCLIINNVNFCRESGLRTRTGSNIDCEKLRRRFSSLHFMVEVKGDLTAKKMVLALLELAQQDHGALDCCVVVILSHGCQASHLQFPGAVYGTDGCPVSVEKIVNIFNGTSCPSLGGKPKLFFIQACGGEQKDHGFEVASTSPEDESPGSNPEPDATPFQEGLRTFDQLSAISSLPTPSDIFVSYSTFPGFVSWRDPKSGSWYVETLDDIFEQWAHSEDLQSLLLRVANAVSVKGIYKQMPGCFNFLRKKLFFKTS
As for B14, the “Basal Activity” value is “Decreased” and the IC50 result was “higher IC50”.

B15: S183A (protein)
chain: GFGDVGALESLRGNADLAYILSMEPCGHCLIINNVNFCRESGLRTRTGANIDCEKLRRRFSSLHFMVEVKGDLTAKKMVLALLELAQQDHGALDCCVVVILSHGCQASHLQFPGAVYGTDGCPVSVEKIVNIFNGTSCPSLGGKPKLFFIQACGGEQKDHGFEVASTSPEDESPGSNPEPDATPFQEGLRTFDQLDAISSLPTPSDIFVSYSTFPGFVSWRDPKSGSWYVETLDDIFEQWAHSEDLQSLLLRVANAVSVKGIYKQMPGCFNFLRKKLFFKTS
As to B15, the “Basal Activity” value was “Decreased” and the IC50 entry was “higher IC50”.

B16: D330A-S183A (protein)
chain: GFGDVGALESLRGNADLAYILSMEPCGHCLIINNVNFCRESGLRTRTGANIDCEKLRRRFSSLHFMVEVKGDLTAKKMVLALLELAQQDHGALDCCVVVILSHGCQASHLQFPGAVYGTDGCPVSVEKIVNIFNGTSCPSLGGKPKLFFIQACGGEQKDHGFEVASTSPEDESPGSNPEPDATPFQEGLRTFDQLAAISSLPTPSDIFVSYSTFPGFVSWRDPKSGSWYVETLDDIFEQWAHSEDLQSLLLRVANAVSVKGIYKQMPGCFNFLRKKLFFKTS
Turning to B16, the “Basal Activity” value was “Decreased” and the IC50 entry is reported as “higher IC50”.
